Test results taken from the nanobody polyreactivity screen of Harvey et al. (2022).

Experiment: yeast display, Sf9 membrane polyspecificity reagent, FACS + sequencing; frameworks hold sequencing errors
Method in brief: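 Genes from sorted yeast were amplified by colony PCR, read by MiSeq 2 × 250 sequencing and filtered on CDR length. These cells carried a synthetic nanobody library in Saccharomyces cerevisiae BJ5465 and were sorted by FACS into low and high (top ~1%) gates on anti-HA and streptavidin fluorescence. Polyreactivity is labelled according to the gate of origin.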

Row | Sequence | polyreactivity (PSR sort gate)
1 | QVQLVESGGGLVQAGGSLRLSCAASGFTFDTNAMGWYRPAPGKERELVAAISRIGGRTYADSVKGRFTISRDNAKNTVYLQMNSLKPEDTAVYYCAADTTWYPYGYDSWGQGTQVTVSS | low polyreactivity
2 | QVQLVESGGGLVQAGGSLRLSCAASGFTFDWYAMGWYRQAPGKERELVAAISSSGRTNYADSVKGRFTISRDNAKNTVYLQMNSLKPEDTAVYYCNRDYPYIWHKGARYWHENDYWGQGTQVTVSS | low polyreactivity
3 | QVQLVESGGGLVQAGGSLRLSCAASGFTFDYNAMGWSRQAPGKERELVAVISSSGSRTYYADSVKGRFTISRDNAKNTVYLQMNSLKPEDTAVYYCAAARIGTRDYWGQGTQVTVSS | high polyreactivity
4 | QVQLVESGGGLVQAGGSLRLSCAASGFTFDYYAMGWYRQAPGKERELVAAISSSGGSTYYADSVKGRFTISRDNAKNTVYLQMNSLKPADTAVYYCGTGHSKKYDYWGQGTQVTVSS | high polyreactivity
5 | QVQLVESGGGLVQAGGSLRLSCAASGFTFDYYAMGWYRQAPGKERELVATITSGGRTNYADSVKGRFTLSRDNAKNTVYLQMNSLNPEDTAVYYCAVDWWNVEYFYSATSGDYWGQGTQVTVSS | low polyreactivity
6 | QVQLVESGGGLVQAGGSLRLSCAASGFTFEGYAMGWYRQAPGKERELVAAISYSGSSTYYADSVKGRFTISRDNAKNTVYLQMNSLKPEDTAVYYCNARRHWYSAWGYDYWGQGTQVTVSS | high polyreactivity
7 | QVQLVESGGGLVQAGGSLRLSCAASGFTFEKNAMGWYGQAPGKERELVAAISRGGSTYADSVKGRFTISRDNAKTTVDLQMNSLKPEDTAVYYCAADTVYIFSSAINGEFGYWGQGTQVTVSS | low polyreactivity
8 | QVQLVESGGGLVQAGGSLRLSCAASGFTFERYAMGWYRQAPGKERELVAAITGSGGSTYYADSVKGRFTISRDNAKTTVYLQMNSLKPEDTAVYYCADYSAYYGCDYWGQGTQVTVSS | low polyreactivity
9 | QVQLVESGGGLVQAGGSLRLSCAASGFTFERYTMGWYRPAPGKERELVATISRRSGRTSYADSVKGRFTISRDNAKNTVYLQMNSLKPEDTAVYYCAVDDAYPDRYDYWGQGTQVTVSS | high polyreactivity
10 | QVQLVESGGGLVQAGGSLRLSCAASGFTFERYTMGWYRQAPGKERELVATISRRSGRTSYADSVKGRFTISRDNAKNSVYLQMNSLKPEDTAVYYCAVDDAYPDRYDYWGQGTQVTVSS | high polyreactivity
11 | QVQLVESGGGLVQAGGSLRLSCAASGFTFERYTMGWYRQAPGKERELVATISRRSGRTSYADSVKGRFTISRDNAKNTVYLQMNSLKPEDTAVYYCAVDDAYPDRYDYWGQGTQVTVSS | high polyreactivity
12 | QVQLVESGGGLVQAGGSLRLSCAASGFTFESNAMGWYRQAPGKERELVAAITSSGGRTYYADSVKGRFTISRDNAKNTVYLQMNSLKPEDTAVYYCAATGKAPRESGGVYSMDWGQGTQVTVSS | low polyreactivity
13 | QVQLVESGGGLVQAGGSLRLSCAASGFTFEVYAMGWYIQAPGKERELVAAITSSGGRTYYADSVKGRFTISRDNAKNTVYLQMNSLKPEDTAVYYCNARSKQPVYPYVQSLNYWGQGTQVTVSS | high polyreactivity
14 | QVQLVESGGGLVQAGGSLRLSCAASGFTFEYNALGWYRQAPGKERELVAAISSGGRTNYADSVKGRFTISRDNAKNTVYLQMNSLKPEDTAVYYCAKRLGVRPAFYYWGQGTLVTVSS | high polyreactivity
15 | QVQLVESGGGLVQAGGSLRLSCAASGFTFEYNAMGWYRQAPGKERELVAVITYRGGSTYYADSVKGRFTISRDHAKNTVYLQMNSLKPEDTAVYYCAARLSSNYWGLKRWGYGYWGQGTQVTVSS | high polyreactivity
16 | QVQLVESGGGLVQAGGSLRLSCAASGFTFEYYAMGWFRQAPGKERELVATITSGGSTYYADSVKGRFTISRDNAKNTVYLQMNSLKPEDTAVYDCNTSSPWIEDYWGQGTQVTVSS | low polyreactivity
17 | QVQLVESGGGLVQAGGSLRLSCAASGFTFEYYAMGWYRQAPGKERELVAAIDTGGSTNYADSVKGRFTISRDNAKNTVYLQMNSLKPEDTAVYYCAADWSWWDGEDYHFEYDYWGQGTQVTVSS | low polyreactivity
18 | QVQLVESGGGLVQAGGSLRLSCAASGFTFEYYPMGWYRQAPGKERELVADITTSSAGTYYADSVKGRFTISRDNAKNTFYLQMNSLKPEDTAVYYCNRDALNTGEDLDYWGQGTQVSVSS | low polyreactivity
19 | QVQLVESGGGLVQAGGSLRLSCAASGFTFFHYAMGWYRQAPGKERELVAAINTRGSRTYYADSVKGRFTISRDNAKNTVYLQMNSLKPEDNAVYYCAAEDYWYDFDYWGQGTQVTVSS | high polyreactivity
20 | QVQLVESGGGLVQAGGSLRLSCAASGFTFFIYVMGWYRQAPGKEREFVAAISSSGDSTYYADSVKGRFTISRDNAKNTVYLQMNSLKPEDTAVYYCAADRIRDLEFDYWGQGTQVTVSS | low polyreactivity

Row | Sequence | polyreactivity (PSR sort gate)
21 | QVQLVESGGGLVQAGGSLRLSCAASGFTFFLYAMGWYRQAPGKEMELVAAIHSRGGSTYYADSVKGRFTISRDNAKNTVSLQMNSLKPEDTAVYYCAAYIPRSSWGYDYWGQGTQVTVSS | high polyreactivity
22 | QVQLVESGGGLVQAGGSLRLSCAASGFTFFNYAMAWYRQAPGKERELVAAISSNGGRTYYADSVKGRFTISRDNAKNTVYLQMNSLKPEDTAVYYCATLYYGRVDYDYWGQGTQVTVSS | high polyreactivity
23 | QVQLVESGGGLVQAGGSLRLSCAASGFTFFRYAMGWYRQAPGKERELVAAISWSGGRTYYADSVKGRFTISRDNAKNTVYLQMNSLKPEDTAVYYCAVDYYRSGLHYDSWGQGTQVTVSS | high polyreactivity
24 | QVQLVESGGGLVQAGGSLRLSCAASGFTFFRYAMGWYRQAPGKERELVATITSGGTTNYADSVKGRFTISRDNAKNTVYLQMNSLKPEDTAVYYCAARTYPSYYVTFEYWGQGTQVTVSS | low polyreactivity
25 | QVQLVESGGGLVQAGGSLRLSCAASGFTFFSNAMGWYRQAPGKDRELVAAITSSGGSTYADSVKGRFTISRDNAKNTVYLQMNSLKPEDTAVYYCAADAQAPPCGFKEYDYWGQGTQVTVSS | low polyreactivity
26 | QVQLVESGGGLVQAGGSLRLSCAASGFTFFSYAMGWYRQAPGKERELVATITWSGGTYYADSVKGRFTISRDNAKNTVYVQMNSLKPEDTAVYYCNARRHYRRYSYRHNYWGQGTQVTVSS | high polyreactivity
27 | QVQLVESGGGLVQAGGSLRLSCAASGFTFFTNAMGWYRQAPGKERELVATITSNGSTNYADSVKGRFTISRDNAKNTVYLQMISLKPEDTAVYYCAADQDSVSMDYWGQGTQVTVSS | low polyreactivity
28 | QVQLVESGGGLVQAGGSLRLSCAASGFTFFTYAMGWYRQAPGKDRQLVAAITTGGSTNYADSVKGRFTISRDNAKINVYLEMNSLKPEDTAVYYCAAQRVSVLLFVRHDYWGQGTQVTVSS | low polyreactivity
29 | QVQLVESGGGLVQAGGSLRLSCAASGFTFFVYAMGWYRQAPGKEREGVAVITSGGTTNYADSVKGRFTISRDNAKNTVYLQMNSLKPEDTAVYYCATDNGGIPKYVPYDYWGQGTQVTVSS | high polyreactivity
30 | QVQLVESGGGLVQAGGSLRLSCAASGFTFFWYAMGWYRQAPGKERELVAGITYRGGSTYYADSVKGRFTISRDNAKNTVYLQMNSLKPEDTAVYYCNADVVTKHISAWWDRYYRRYYYWGQGTQVTVSS | low polyreactivity
31 | QVQLVESGGGLVQAGGSLRLSCAASGFTFFYNAMGWYSQAPGKESELVASITVSTSGTDYADSVKGRFTISRDNAKNTVYLQMNSLKPEDTAVYYCATDLVFVYSDLQDTAYYWGQGTQVTVSS | low polyreactivity
32 | QVQLVESGGGLVQAGGSLRLSCAASGFTFGANDMGRYIQAPGKERELVATISSSGGTTYYADSVKGRFTISRDNAKYTVYLQMNSLKPEDTAVYYCAAKGLFTGRVSRYADDHWGQGTEVTVSS | low polyreactivity
33 | QVQLVESGGGLVQAGGSLRLSCAASGFTFGAYAMGWSRQAPGKERELVASISWSGGSTYYADSVKGRFTISRDNAKNTVYLQMNSLKPEDTAVYDCNKDFVYPDDDGLFDYWGQGTQVTVSS | low polyreactivity
34 | QVQLVESGGGLVQAGGSLRLSCAASGFTFGAYARGWYRQAPGKERELVAAISSRGGSTYYADSVKGRFTISRDNAKNTVYLQKNSLKPEDTAVYYCAANSYRRTGYNYWGQGTQVSVSS | high polyreactivity
35 | QVQLVESGGGLVQAGGSLRLSCAASGFTFGGNARGWYRQAPGKERELVAAIRRGGSTNYADSVKGRFTISRDNAKNTVYLQMNSLKPEDTAVYYCARDYRSYTGSYDTSYDYWGQGTQVTVSS | high polyreactivity
36 | QVQLVESGGGLVQAGGSLRLSCAASGFTFGGYAMGWYRQAPGKERDLVAAITGSGGNTIYADSVKGRFTISRDNAKNTFYLQINSLKPDDTAVYYCNARYTSHTHADCVYLFDYWGQGTQVNVSS | low polyreactivity
37 | QVQLVESGGGLVQAGGSLRLSCAASGFTFGHYAMGWYRQAPGIERELVAAISRSGGTTSYADSVKGRFTISRDNAKNTVYLQMNSLKPEDTAVYYCNKDYIWARYGGGRDYWGQGTQVTVSS | low polyreactivity
38 | QVQLVESGGGLVQAGGSLRLSCAASGFTFGHYAMGWYRQAPGKERELVAAISIDGGRTYYADSVKGRFTISRDNAKNTVYLQMNSLKPEDTAVYYCAVPRWVYYTSDYDYWGQGTQVTVSS | high polyreactivity
39 | QVQLVESGGGLVQAGGSLRLSCAASGFTFGINAMGWYRQAPGQERELVASISSGSSTTYADSVKGRFTISRDNAKNTVYLQMNSLKPEDTAVYYCNARPFHIYWRYDYWGQGTQLTVSS | low polyreactivity
40 | QVQLVESGGGLVQAGGSLRLSCAASGFTFGIYAMGWYRQAPGKERELVAAITSGGITKYADSVKGRFTISRDNAKNTVYLQMNSLKPEDTAVYYCAATGYRQSYDSTWYRYDYWGQGTQVTVSS | low polyreactivity
